From patent publication US20060183194A1 (Genentech, published 2006) come the findings set out here.

Assay [1] has as its target T1, ErbB-4 receptor-Ig fusion (human, UniProt Q15303 26-651).
T1 construct: extracellular domain;range 224-C-terminus; also called ErbB-4-Ig; not shown: human IgG heavy chain constant region from His224 (hinge) on
T1 sequence: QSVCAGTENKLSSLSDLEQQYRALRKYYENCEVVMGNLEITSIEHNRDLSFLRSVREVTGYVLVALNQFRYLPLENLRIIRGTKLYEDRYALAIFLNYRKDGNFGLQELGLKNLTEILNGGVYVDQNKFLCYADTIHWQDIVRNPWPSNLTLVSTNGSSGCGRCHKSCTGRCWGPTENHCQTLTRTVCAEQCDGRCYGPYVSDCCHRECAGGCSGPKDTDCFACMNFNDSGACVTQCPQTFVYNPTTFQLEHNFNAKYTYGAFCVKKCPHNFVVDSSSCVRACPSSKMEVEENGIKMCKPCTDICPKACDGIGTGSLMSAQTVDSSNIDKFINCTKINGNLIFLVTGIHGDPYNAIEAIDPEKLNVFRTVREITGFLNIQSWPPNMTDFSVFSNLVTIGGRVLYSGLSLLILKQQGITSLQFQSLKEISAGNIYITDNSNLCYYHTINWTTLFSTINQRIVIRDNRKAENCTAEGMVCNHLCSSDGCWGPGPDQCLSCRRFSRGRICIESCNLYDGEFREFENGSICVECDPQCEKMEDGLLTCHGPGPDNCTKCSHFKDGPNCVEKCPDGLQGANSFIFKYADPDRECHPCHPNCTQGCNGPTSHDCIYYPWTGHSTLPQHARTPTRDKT
Kind of assay: phage ELISA; ratio to wild-type HRG-β1 177-244 phage.

For assay [2], the target named is T2, ErbB-3 receptor-Ig fusion (human, UniProt P21860 20-643).
T2 construct: extracellular domain;range 224-C-terminus; also called ErbB-3-Ig; 3/3 homodimer; not shown: human IgG heavy chain constant region from His224 (hinge) on
The description is as above.

Assay [3] has as its target T1, ErbB-4 receptor-Ig fusion. Kind of assay: phage ELISA; soluble ErbB-4-Ig as competitor.
Assay [4] concerns the target T2, ErbB-3 receptor-Ig fusion. As to the kind of experiment: phage ELISA; soluble ErbB-3-Ig as competitor.
The target in assay [5] is T2, ErbB-3 receptor-Ig fusion. As to the kind of experiment: phage ELISA; soluble ErbB-3-Ig as competitor. This is another data set of the same source.
Procedure: (§1) Microtiter plates (Nunc Maxisorp™ 96-well plates, Inter Med, Denmark) for phage ELISA were prepared as follows. The wells were precoated overnight with 0.5 μg of rabbit anti-human IgG (Fc gamma fragment-specific) antibodies (Jackson Immunoresearch, West Grove, Pa.) in 100 μL 50 mM NaCO₃ (pH 9.6). The wells were blocked for 30 minutes (min) with 200 μL PBS containing 0.1% bovine serum albumin (BSA) and rinsed with wash buffer (PBS containing 0.05% Tween 20™). The wells were then coated with 0.1 μg ErbB-2/3-Ig in binding buffer (PBS, 0.1% BSA, 0.05% Tween 20™) for 1 h, and washed again.
(§2) Serial dilutions of soluble ErbB-2/3-Ig (competitor) and a concentration of phage predetermined to give 60% saturation (without competitor) were added to the wells in 100 μL binding buffer. Following incubation for 2 h at room temperature, plates were washed extensively and treated with a 1:900 dilution of anti-M13 horseradish peroxidase conjugate (Pharmacia, Piscataway, N.J.) for 20 min. The amount of phage binding was determined by assaying horseradish peroxidase activity using o-phenylenediamine dihydrochloride) substrate solution (Sigma Chemical Company, St. Louis, Mo.). EC₅₀ values were calculated as the concentration of soluble ErbB-2/3-Ig required to compete half of the phage off the plate. […]
Assay [6] deals with T1, ErbB-4 receptor-Ig fusion. Kind of assay: phage ELISA; soluble ErbB-4-Ig as competitor. The source holds these as a separate data set.
Procedure: as §1, §2
Assay [7] has as its target T3, ErbB-2/3 receptor-Ig fusion (human, UniProt P04626 23-652; P21860 20-643).
T3 construct: extracellular domain;range 224-C-terminus; Co-expressed in HEK-293; also called ErbB-2/3-Ig; 2/3-heterodimer; not shown: human IgG heavy chain constant region from His224 (hinge) on
Kind of assay: phage ELISA; soluble ErbB-2/3-Ig competes phage off plate-bound ErbB-2/3-Ig.

The target in assay [8] is T2, ErbB-3 receptor-Ig fusion. As to the kind of experiment: displacement of 125I-HRG from plate-bound ErbB-3-Ig.
Assay [9] addresses T1, ErbB-4 receptor-Ig fusion. As to the kind of experiment: displacement of 125I-HRG from plate-bound ErbB-4-Ig.
Source text: For the ErbB-4 binding assays, PBS containing 1% BSA was used as the blocking and binding buffers, and the wash buffer was PBS containing 0.05% Tween 20™.
The target in assay [10] is T3, ErbB-2/3 receptor-Ig fusion. As to the kind of experiment: told with the 125I-HRG displacement assay; reference ErbB-3-Ig homodimer.
The target in assay [11] is ErbB-2/3 heterodimers on MCF7 breast cancer carcinoma cells (UniProt P04626 23-1255; P21860 20-1342, limits assumed). As to the kind of experiment: cell-based or functional assay.
Assay [12] addresses T3, ErbB-2/3 receptor-Ig fusion. Kind of assay: displacement of 125I-HRG from plate-bound ErbB-2/3-Ig.

T2 sequence (P21860 other isoform, or with tags, fused parts or gaps): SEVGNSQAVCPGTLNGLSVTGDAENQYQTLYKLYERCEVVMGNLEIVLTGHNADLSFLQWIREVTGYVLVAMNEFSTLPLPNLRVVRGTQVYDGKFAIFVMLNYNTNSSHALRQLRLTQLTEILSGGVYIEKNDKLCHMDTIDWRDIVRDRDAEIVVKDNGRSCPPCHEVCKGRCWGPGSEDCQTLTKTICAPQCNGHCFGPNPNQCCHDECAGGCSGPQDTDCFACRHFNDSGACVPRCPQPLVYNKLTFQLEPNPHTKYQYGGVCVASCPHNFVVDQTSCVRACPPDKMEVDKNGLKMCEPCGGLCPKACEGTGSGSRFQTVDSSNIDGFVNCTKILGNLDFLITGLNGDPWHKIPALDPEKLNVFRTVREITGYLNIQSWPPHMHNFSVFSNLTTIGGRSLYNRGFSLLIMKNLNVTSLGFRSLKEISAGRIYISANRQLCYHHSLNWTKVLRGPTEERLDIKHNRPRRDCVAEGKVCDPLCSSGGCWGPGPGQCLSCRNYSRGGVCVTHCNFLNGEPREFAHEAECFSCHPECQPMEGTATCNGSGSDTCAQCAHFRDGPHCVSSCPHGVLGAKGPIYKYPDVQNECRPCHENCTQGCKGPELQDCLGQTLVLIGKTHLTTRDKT

On to “HRG-β1 177-244 H178W with 228-231 replaced by Met, on phage (from UniProt P69168 265-424) (ligand)”, for which the EC50 Mut/WT in assay [1] was 1.7; in [2] it was 1.2.
For “HRG-β1 177-244 H178L with 228-231 replaced by Met, on phage (from UniProt P69168 265-424) (ligand)” the same measures were 1.7 and 6.4.
For “HRG-β1 177-244 F189A on phage (from UniProt P69168 265-424) (ligand)”, the EC50 was found to be 106 nM in assay [3] and 892 nM in [4].
“HRG-β1 177-244 F216A on phage (from UniProt P69168 265-424) (ligand)” registered an EC50 in assay [4] of 500 nM. In other words, the sub-micromolar range.

B1: HRG8: wild-type HRG-β1 EGF (HRG-β1 177-228) displayed on phage, linker to pIII 323 (ligand, phage M13)
chain: SHLVKCAEKEKTFCVNGGECFMVKDLSNPSRYLCKCPNEFTGDRCQNYVMASGGGSGGGSGGGSNSQMAQVGDGDNSPLMNNFRQYLPSLPQSVECRPFVFSAGKPYEFSIDCDKINLFRGVFAFLLYVATFMYVFSTFANILRNKES
notes: range 323-C-terminus; Monovalent phage display; also called pHRG8-g3; wild-type HRG-β1 EGF phage
For B1, the EC50 in assay [5] came to 135 nM; in assay [6] it was 163 nM; in assay [7], 11 nM.

B2: soluble wild-type HRG-β1 EGF (HRG8, HRG-β1 177-228) (ligand)
chain: SHLVKCAEKEKTFCVNGGECFMVKDLSNPSRYLCKCPNEFTGDRCQNYVMAS
notes: also called HRG8 (WT)
On to B2, for which the EC50 came out at 2.3 nM in [8], 1.5 nM in [9] and 0.033 nM in assay [12]. Besides, in [10], the “fold higher affinity than for the 3/3 homodimer” value was approximately 100 fold. Further, in assay [11], the “KIRA EC50 (nM): tyrosine phosphorylation of the ErbB-2 receptor on MCF7 cells” value was 0.212 nM.
